Data on 8 molecules can be found in publication PMC5660093, “Structure of SgK223 pseudokinase reveals novel mechanisms of homotypic and heterotypic association” (Nature Communications, 2017).

B1: SgK269-αN1-PsK-Cter (WT) (domain or fragment, human, UniProt Q9H792 1267-1746, looked up)
chain: GIQKPQRQALYRGLENREEVVGKIRSLHTDALKKLAVKCEDLFMAGQKDQLRFGVDSWSDFRLTSDKPCCEAGDAVYYTASYAKDPLNNYAVKICKSKAKESQQYYHSLAVRQSLAVHFNIQQDCGHFLAEVPNRLLPWEDPDDPEKDEDDMEETEEDAKGETDGKNPKPCSEAASSQKENQGVMSKKQRSHVVVITREVPCLTVADFVRDSLAQHGKSPDLYERQVCLLLLQLCSGLEHLKPYHVTHCDLRLENLLLVHYQPGGTAQGFGPAEPSPTSSYPTRLIVSNFSQAKQKSHLVDPEILRDQSRLAPEIITATQYKKCDEFQTGILIYEMLHLPNPFDENPELKEREYTRADLPRIPFRSPYSRGLQQLASCLLNPNPSERILISDAKGILQCLLWGPREDLFQTFTACPSLVQRNTLLQNWLDIKRTLLMIKFAEKSLDREGGISLEDWLCAQYLAFATTDSLSCIVKILQHR
notes: SgK269 (PEAK1), human, residues 1267-1746: αN1 helix, pseudokinase domain and C-terminal helices; also called SgK269-WT (αN1-PsK-Cter); SgK269-WT; source: E. coli C41(DE3), purified (Ni-NTA, SEC)
B2: His tag cleaved SgK269-αN1-PsK-Cter F1609A (domain or fragment, human, UniProt Q9H792 1267-1746, looked up)
chain: GIQKPQRQALYRGLENREEVVGKIRSLHTDALKKLAVKCEDLFMAGQKDQLRFGVDSWSDFRLTSDKPCCEAGDAVYYTASYAKDPLNNYAVKICKSKAKESQQYYHSLAVRQSLAVHFNIQQDCGHFLAEVPNRLLPWEDPDDPEKDEDDMEETEEDAKGETDGKNPKPCSEAASSQKENQGVMSKKQRSHVVVITREVPCLTVADFVRDSLAQHGKSPDLYERQVCLLLLQLCSGLEHLKPYHVTHCDLRLENLLLVHYQPGGTAQGFGPAEPSPTSSYPTRLIVSNFSQAKQKSHLVDPEILRDQSRLAPEIITATQYKKCDEFQTGILIYEMLHLPNPADENPELKEREYTRADLPRIPFRSPYSRGLQQLASCLLNPNPSERILISDAKGILQCLLWGPREDLFQTFTACPSLVQRNTLLQNWLDIKRTLLMIKFAEKSLDREGGISLEDWLCAQYLAFATTDSLSCIVKILQHR
notes: SgK269 (PEAK1), human, residues 1267-1746; also called SgK269-αN1-PsK-Cter Phe1609Ala; source: E. coli C41(DE3), purified (Ni-NTA, SEC); not shown: His tag, N-terminal, cleaved

Data set [1] deals with the molecule itself. The data set can be described thus: AUC; sedimentation velocity, WT and oligomer-interface mutants each at 20 μM; 20 mM Tris-HCl, 150 mM NaCl, pH 8.0, 20 °C.
Data set [2] deals with the molecule itself. Briefly: SEC; peaks from the Mono Q column on Superdex 200 Increase 10/300 GL; 20 mM Tris pH 8.5, 200 mM NaCl, 1 mM TCEP. In general terms: Size exclusion chromatography separates by hydrodynamic size, large species first.
Data set [3] deals with the molecule itself. Briefly: AUC; sedimentation velocity, WT and mutants each at 3.0 μM; 20 mM Tris-HCl, 150 mM NaCl, pH 8.0, 20 °C.
Data set [4] concerns the molecule itself. Briefly: AUC; sedimentation velocity at 0.6, 1.2 and 2.3 μM; 20 mM Tris-HCl, 150 mM NaCl, pH 8.0, 20 °C; dimer to monomers.
For the data set “SgK269-αN1-PsK-Cter (WT)”, the target named is B1. Briefly: SEC; SgK223 and SgK269 proteins mixed equimolar at 29.06 μM, 15 min on ice; Superdex 200 Increase 10/300 GL; 20 mM Tris pH 8.5, 200 mM NaCl, 5% glycerol, 1 mM TCEP; preformed homodimers mixed. The conditions noted are these: both partners purified.
Data set [5] concerns the molecule itself. The data set can be described thus: SAXS; inline gel filtration (Superdex 200 5/150); 20 mM Tris pH 8.5, 200 mM NaCl, 1 mM TCEP, 5% glycerol, 12 °C; WT injected at 2.2 mg/ml, I1243A at 3.5 mg/ml.
Data set [6] deals with B2. Briefly: anion exchange chromatography (Mono Q); the two αG mutants mixed equimolar at 20 μM, overnight on ice, diluted five times, Mono Q 5/50 GL, linear NaCl gradient, 20 mM Tris pH 8.5; peaks analysed by SDS-PAGE. Particulars: both partners purified.

In the case of B1, the binding result in data set [1] was “binds”. The term stoichiometry N denotes a count of units in the complex or per binding partner. For the molecule B2, the “stoichiometry N” value in data set [2] is 2.

B3: SgK223-αN1-PsK-Cter F974A (domain or fragment, human, UniProt Q86YV5 932-1406, looked up)
chain: GSTQLQLHGLLSNISSKEGTYAKLGGLYTQSLARLVAKCEDLAMGGQKKELHFNENNWSLFKLTCNKPCCDSGDAIYYCATCSEDPGSTYAVKICKAPEPKTVSYCSPSVPVHFNIQQDCGHFVASVPSSMLSSPDAPKDPVPALPTHPPAQEQDCVVVITREVPHQTASDFVRDSAASHQAEPEAYERRVCFLLLQLCNGLEHLKEHGIIHRDLCLENLLLVHCTLQAGPGPAPAPAPAPAPAAAAPPCSSAAPPAGGTLSPAAGPASPEGPREKQLPRLIISNFLKAKQKPGGTPNLQQKKSQARLAPEIVSASQYRKFDEFQTGILIYELLHQPNPFEVRAQLRERDYRQEDLPPLPALSLYSPGLQQLAHLLLEADPIKRIRIGEAKRVLQCLLWGPRRELVQQPGTSEEALCGTLHNWIDMKRALMMMKFAEKAVDRRRGVELEDWLCCQYLASAEPGALLQSLKLLQLL
notes: SgK223 (Pragmin), human, residues 932-1406; source: E. coli C41(DE3), purified (Ni-NTA, SEC)
On to B3, for which the binding result in data set [3] was “binds”.

B4: SgK223-αN1-PsK-Cter W1354A (domain or fragment, human, UniProt Q86YV5 932-1406, looked up)
chain: GSTQLQLHGLLSNISSKEGTYAKLGGLYTQSLARLVAKCEDLFMGGQKKELHFNENNWSLFKLTCNKPCCDSGDAIYYCATCSEDPGSTYAVKICKAPEPKTVSYCSPSVPVHFNIQQDCGHFVASVPSSMLSSPDAPKDPVPALPTHPPAQEQDCVVVITREVPHQTASDFVRDSAASHQAEPEAYERRVCFLLLQLCNGLEHLKEHGIIHRDLCLENLLLVHCTLQAGPGPAPAPAPAPAPAAAAPPCSSAAPPAGGTLSPAAGPASPEGPREKQLPRLIISNFLKAKQKPGGTPNLQQKKSQARLAPEIVSASQYRKFDEFQTGILIYELLHQPNPFEVRAQLRERDYRQEDLPPLPALSLYSPGLQQLAHLLLEADPIKRIRIGEAKRVLQCLLWGPRRELVQQPGTSEEALCGTLHNAIDMKRALMMMKFAEKAVDRRRGVELEDWLCCQYLASAEPGALLQSLKLLQLL
notes: SgK223 (Pragmin), human, residues 932-1406; also called alanine mutation of Trp1354; source: E. coli C41(DE3), purified (Ni-NTA, SEC)
Consider B4, for which, in data set [3], the binding result is “binds”.

B5: SgK223-αN1-PsK-Cter (WT) (domain or fragment, human, UniProt Q86YV5 932-1406, looked up)
chain: GSTQLQLHGLLSNISSKEGTYAKLGGLYTQSLARLVAKCEDLFMGGQKKELHFNENNWSLFKLTCNKPCCDSGDAIYYCATCSEDPGSTYAVKICKAPEPKTVSYCSPSVPVHFNIQQDCGHFVASVPSSMLSSPDAPKDPVPALPTHPPAQEQDCVVVITREVPHQTASDFVRDSAASHQAEPEAYERRVCFLLLQLCNGLEHLKEHGIIHRDLCLENLLLVHCTLQAGPGPAPAPAPAPAPAAAAPPCSSAAPPAGGTLSPAAGPASPEGPREKQLPRLIISNFLKAKQKPGGTPNLQQKKSQARLAPEIVSASQYRKFDEFQTGILIYELLHQPNPFEVRAQLRERDYRQEDLPPLPALSLYSPGLQQLAHLLLEADPIKRIRIGEAKRVLQCLLWGPRRELVQQPGTSEEALCGTLHNWIDMKRALMMMKFAEKAVDRRRGVELEDWLCCQYLASAEPGALLQSLKLLQLL
notes: SgK223 (Pragmin), human, residues 932-1406: αN1 helix, pseudokinase domain and C-terminal helices; Modified pCOLD IV vector with an N-terminal His TEV cleavage tag; Monomer MW printed as 54 kDa; A seleno-methionine form was also crystallised; also called WT-SgK223-αN1-PsK-Cter; SgK223-WT (αN1-PsK-Cter); source: E. coli C41(DE3), purified (Ni-NTA, SEC)
With B5, the “stoichiometry N” value in data set [4] is 2. Also, in the data set with SgK269-αN1-PsK-Cter (WT), the binding result was “binds”.

B6: SgK223 αN1-PsK-Cter I1243A (domain or fragment, human, UniProt Q86YV5 932-1406, looked up)
chain: GSTQLQLHGLLSNISSKEGTYAKLGGLYTQSLARLVAKCEDLFMGGQKKELHFNENNWSLFKLTCNKPCCDSGDAIYYCATCSEDPGSTYAVKICKAPEPKTVSYCSPSVPVHFNIQQDCGHFVASVPSSMLSSPDAPKDPVPALPTHPPAQEQDCVVVITREVPHQTASDFVRDSAASHQAEPEAYERRVCFLLLQLCNGLEHLKEHGIIHRDLCLENLLLVHCTLQAGPGPAPAPAPAPAPAAAAPPCSSAAPPAGGTLSPAAGPASPEGPREKQLPRLIISNFLKAKQKPGGTPNLQQKKSQARLAPEAVSASQYRKFDEFQTGILIYELLHQPNPFEVRAQLRERDYRQEDLPPLPALSLYSPGLQQLAHLLLEADPIKRIRIGEAKRVLQCLLWGPRRELVQQPGTSEEALCGTLHNWIDMKRALMMMKFAEKAVDRRRGVELEDWLCCQYLASAEPGALLQSLKLLQLL
notes: as for B3
For B6, the “stoichiometry N” value in data set [5] was determined as 2.

B7: SgK223-αN1-PsK-Cter Y1282A (domain or fragment, human, UniProt Q86YV5 932-1406, looked up)
chain: GSTQLQLHGLLSNISSKEGTYAKLGGLYTQSLARLVAKCEDLFMGGQKKELHFNENNWSLFKLTCNKPCCDSGDAIYYCATCSEDPGSTYAVKICKAPEPKTVSYCSPSVPVHFNIQQDCGHFVASVPSSMLSSPDAPKDPVPALPTHPPAQEQDCVVVITREVPHQTASDFVRDSAASHQAEPEAYERRVCFLLLQLCNGLEHLKEHGIIHRDLCLENLLLVHCTLQAGPGPAPAPAPAPAPAAAAPPCSSAAPPAGGTLSPAAGPASPEGPREKQLPRLIISNFLKAKQKPGGTPNLQQKKSQARLAPEIVSASQYRKFDEFQTGILIYELLHQPNPFEVRAQLRERDARQEDLPPLPALSLYSPGLQQLAHLLLEADPIKRIRIGEAKRVLQCLLWGPRRELVQQPGTSEEALCGTLHNWIDMKRALMMMKFAEKAVDRRRGVELEDWLCCQYLASAEPGALLQSLKLLQLL
notes: as for B3
As to B7, the “stoichiometry N” value in data set [1] was 2.

B8: SgK223-αN1-PsK-Cter F1271A (domain or fragment, human, UniProt Q86YV5 932-1406, looked up)
chain: GSTQLQLHGLLSNISSKEGTYAKLGGLYTQSLARLVAKCEDLFMGGQKKELHFNENNWSLFKLTCNKPCCDSGDAIYYCATCSEDPGSTYAVKICKAPEPKTVSYCSPSVPVHFNIQQDCGHFVASVPSSMLSSPDAPKDPVPALPTHPPAQEQDCVVVITREVPHQTASDFVRDSAASHQAEPEAYERRVCFLLLQLCNGLEHLKEHGIIHRDLCLENLLLVHCTLQAGPGPAPAPAPAPAPAAAAPPCSSAAPPAGGTLSPAAGPASPEGPREKQLPRLIISNFLKAKQKPGGTPNLQQKKSQARLAPEIVSASQYRKFDEFQTGILIYELLHQPNPAEVRAQLRERDYRQEDLPPLPALSLYSPGLQQLAHLLLEADPIKRIRIGEAKRVLQCLLWGPRRELVQQPGTSEEALCGTLHNWIDMKRALMMMKFAEKAVDRRRGVELEDWLCCQYLASAEPGALLQSLKLLQLL
notes: SgK223 (Pragmin), human, residues 932-1406; also called SgK223-αN1-PsK-Cter Phe1271Ala; His-SgK223-αN1-PsK-Cter; source: E. coli C41(DE3), purified (Ni-NTA, SEC); not shown: His tag, N-terminal, kept
For B8, in data set [6], the binding result is listed as “binds”. In addition, the “stoichiometry N” value in data set [1] was 2.
